Results published in publication PMC2942843.

What follows are sequences tested against T1, CbbR (His6-CbbR) (Acidithiobacillus ferrooxidans ATCC 23270) (UniProt B7JB31) (assay: EMSA). Conditions: 12 mM HEPES-NaOH pH 7.9, 4 mM Tris-HCl pH 7.9, 1 mM EDTA, 60 mM KCl, 1 mM DTT, 10% glycerol, 5 ug/ul BSA, 2 ug/ul poly(dI-dC), 30 C, 15 min, 20 pmol DNA.
T1 sequence: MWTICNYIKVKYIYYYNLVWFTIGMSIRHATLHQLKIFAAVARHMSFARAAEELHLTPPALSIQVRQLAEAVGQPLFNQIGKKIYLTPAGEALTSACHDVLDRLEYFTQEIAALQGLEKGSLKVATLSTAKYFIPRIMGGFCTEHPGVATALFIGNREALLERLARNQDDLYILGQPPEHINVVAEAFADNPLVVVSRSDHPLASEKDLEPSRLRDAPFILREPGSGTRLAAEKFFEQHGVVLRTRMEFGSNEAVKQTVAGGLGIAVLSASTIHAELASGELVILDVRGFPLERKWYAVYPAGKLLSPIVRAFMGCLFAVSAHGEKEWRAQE

Sequence	binding
ACGACGGCGGCAAGCACCGCCAACCACCGAACATCAGACGCGTAGTCACAAACCACCATCACATCAGTGATACGTTATTGAAAAAATAATAACTACTTATTAGCGCTTATGATTCACCCGCACTATAGTTCGATCATCGCTGCAGACGCAGCGATTGCGCCGGGGGCACCGGCGTCGGGCAACTGCATGGAGGTGGCATATGGCCGTCAAGACCTATAACGCGGGTGTGAAGGATTACCGG (double strand) [Pcbb2 (cbb2 operon promoter region)]	binds
CGGCAGCGAAGATCTTGAGTTGGTGCAAGGTTGCATGACGGATAGACATGCCAATAGTAAACCATACTAAATTATAATAGTAAATATATTTTACTTTTATATAGTTACAGATCGTCCACAATGCTACCCAAGCATTGGAACCTGGCAGGTGGCTCCAATCACCATCGTCTACCATGACACAAGGAGAGCAAGCATGGCCGTAAAAAAGTATGAGGCCGGAG (double strand) [Pcbb1 (cbb1 operon promoter region)]	binds
TTTGGGGTGGCAGCAAGAAGTCCTCCTTTCCGGTAGTTGGCCCGGCGCGCTCTTGAGGCCGCACATCCGCCCCGCTTGAGCCAATTTTGCCTTTGCGGTGAGCGGGTTTCACTTCGCTTGTGGCGCTTTCCTTTGATATAGTGCGCGCTGTCCCTGTCGCGCTGCGACAGGTCGGCCTAGCTATTGAGGAGCCCAGTGCATGTCCAAAAGTCATCTTTTCACCTCTGAATCCGTTTCC (double strand) [Pcbb4 (cbb4 operon promoter region)]	no binding
CATTGAACAGGGTCAGCTCCTGGCCATGGCGGGCGCGCAACACCTTGAGCAGATGATGGCTGGCACCTGCCGGCAGCAAAAAGGGGCCGCTTTCGGGCAGGTCGGAATCGGCGTATAAGTGAATGCGCGGCATAGGTTACGATATCGGGCAGGAGAACACAGGTGGGATTATATCATCGTGGCGCTGGCGCAGGTGGCGCATGATCAAAGACTCCGAT (double strand) [Pcbb3 (cbb3 operon promoter region)]	binds
